Assay results: patent US20230250160A1 (HOBER BIOTECH, published 2023)
Where two headings read alike, the source gives them in different places.

T1: renin (human (produced in the Human Secretome …, UniProt P00797 24-406, limits assumed))
T1 construct: also called bREN
T1 sequence (looked up): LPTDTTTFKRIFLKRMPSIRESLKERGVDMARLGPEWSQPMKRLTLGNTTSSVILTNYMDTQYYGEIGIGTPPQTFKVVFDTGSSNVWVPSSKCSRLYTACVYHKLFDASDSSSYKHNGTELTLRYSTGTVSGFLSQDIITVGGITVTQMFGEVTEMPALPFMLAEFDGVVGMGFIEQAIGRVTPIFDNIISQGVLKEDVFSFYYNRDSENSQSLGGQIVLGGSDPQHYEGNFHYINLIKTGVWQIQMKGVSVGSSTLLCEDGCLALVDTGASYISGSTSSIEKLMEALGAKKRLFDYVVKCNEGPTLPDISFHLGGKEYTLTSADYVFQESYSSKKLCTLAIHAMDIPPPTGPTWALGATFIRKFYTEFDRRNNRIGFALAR

T2: C-reactive protein (human (produced in the Human Secretome …, UniProt P02741 19-224))
T2 construct: also called CRP; bCRP
T2 sequence (looked up): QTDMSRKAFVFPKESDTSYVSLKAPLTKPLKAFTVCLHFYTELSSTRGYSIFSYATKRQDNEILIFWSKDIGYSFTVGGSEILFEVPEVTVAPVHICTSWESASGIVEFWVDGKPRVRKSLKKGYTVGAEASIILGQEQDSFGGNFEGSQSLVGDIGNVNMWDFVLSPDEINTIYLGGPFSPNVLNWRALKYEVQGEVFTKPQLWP


Assays:
[1] = biological target: T3, Human Serum Albumin (human, UniProt P02768 25-609); assay: SPR Biacore T200, HSA on CM5 chip, ADAPT injected, 1:1 fit
T3 construct: also called HSA
Method: (§1) Sensor-based binding analysis was performed using a Biacore T200 system (GE Healthcare, Stockholm, Sweden). All analyses were conducted using CM-5 sensor chips coated with the target antigen, another irrelevant antigen and HSA. One surface was left as reference. Binding analysis was performed in PBS-T at 25° C. The ADAPT variants were diluted in PBS-T to 500 nM, 250 nM, 125 nM, 62.5 nM and 31.25 nM. The samples were injected at a flow rate of 30 ul/min for 120 s followed by injection of PBS-T for 240 s to monitor the dissociation. Surfaces were regenerated with 10 mM HCl. Kinetic parameters were determined using the Biacore Insight Evaluation software, assuming a 1:1 binding.

[2] = biological target: T3, Human Serum Albumin; assay: as above; remark: listed apart in the source
Method: as §1

[3] = biological target: T4, Prostate Specific Antigen (human (produced in the Human Secretome …, UniProt P07288 18-261, limits assumed)); assay: SPR Biacore T200, target on CM5 chip, ADAPT injected, 1:1 fit
T4 construct: also called PSA; bPSA
Method: as §1
(§2) Variants with sufficient alpha helical structure as well as monomeric elution profiles on the SEC column were further analyzed for binding towards their target protein as well as to HSA. The binding towards the target antigen used in the selection was measured by a multi-cycle analysis using SPR, showing that several binders had affinities in the μM-pM range. […] After target binding had been established, the variants were also evaluated for their ability to simultaneously bind to HSA. This was done either through an SPR capture assay or an experiment where the ADAPT was pre-incubated with saturating conditions of HSA before the binding towards the target was analyzed. […] In total, thirteen of the characterized binders from the selections towards TNFα, PSA, ANG, MYDGF and Insulin could bind both HSA and its target antigen simultaneously. FIG. 5 contains sensorgrams for the thirteen variants in the capture assay.

[4] = biological target: T4, Prostate Specific Antigen; assay: as above; remark: listed apart in the source
Method: as §1

[5] = biological target: T5, Human recombinant Insulin (human, UniProt P01308 25-54; P01308 90-110, limits assumed); assay: as above
T5 construct: also called bInsulin
Method: as §1, §2

[6] = biological target: T5, Human recombinant Insulin; assay: as above; remark: listed apart in the source
Method: as §1

[7] = biological target: T1, renin; assay: as above
Method: as §1, §2

[8] = biological target: T1, renin; assay: as above; remark: listed apart in the source
Method: as §1

[9] = biological target: T2, C-reactive protein; assay: as above
Method: as §1, §2

[10] = biological target: T2, C-reactive protein; assay: as above; remark: listed apart in the source
Method: as §1

[11] = biological target: T6, tumor necrosis factor alpha (human (produced in the Human Secretome …, UniProt P01375 77-233, limits assumed)); assay: as above
T6 construct: also called TNFα; bTNFα
Method: as §1, §2

[12] = biological target: T6, tumor necrosis factor alpha; assay: as above; remark: listed apart in the source
Method: as §1

[13] = biological target: T7, angiogenin (human (produced in the Human Secretome …, UniProt P03950 25-147)); assay: as above
T7 construct: also called bANG
Method: as §1

[14] = biological target: T7, angiogenin; assay: as above; remark: listed apart in the source
Method: as §1, §2

T5 sequence (P01308 25-54 limits assumed, chain 1 of 2): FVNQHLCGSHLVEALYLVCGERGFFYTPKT
T5 sequence (P01308 90-110 limits assumed, chain 2 of 2): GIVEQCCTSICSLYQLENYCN
T4 sequence (P07288 18-261 limits assumed): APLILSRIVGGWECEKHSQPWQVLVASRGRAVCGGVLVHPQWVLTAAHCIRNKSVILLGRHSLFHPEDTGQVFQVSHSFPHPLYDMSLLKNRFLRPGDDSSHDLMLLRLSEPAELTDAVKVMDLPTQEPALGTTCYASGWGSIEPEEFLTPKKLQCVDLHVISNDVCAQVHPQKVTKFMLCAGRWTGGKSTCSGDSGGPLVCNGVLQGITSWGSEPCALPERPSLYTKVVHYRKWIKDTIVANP
T6 sequence (P01375 77-233 limits assumed): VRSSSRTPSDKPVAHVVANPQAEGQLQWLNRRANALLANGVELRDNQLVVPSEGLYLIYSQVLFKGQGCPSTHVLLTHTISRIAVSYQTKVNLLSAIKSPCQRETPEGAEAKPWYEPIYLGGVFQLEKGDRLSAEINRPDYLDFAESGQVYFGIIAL
T3 sequence (P02768 25-609 limits assumed): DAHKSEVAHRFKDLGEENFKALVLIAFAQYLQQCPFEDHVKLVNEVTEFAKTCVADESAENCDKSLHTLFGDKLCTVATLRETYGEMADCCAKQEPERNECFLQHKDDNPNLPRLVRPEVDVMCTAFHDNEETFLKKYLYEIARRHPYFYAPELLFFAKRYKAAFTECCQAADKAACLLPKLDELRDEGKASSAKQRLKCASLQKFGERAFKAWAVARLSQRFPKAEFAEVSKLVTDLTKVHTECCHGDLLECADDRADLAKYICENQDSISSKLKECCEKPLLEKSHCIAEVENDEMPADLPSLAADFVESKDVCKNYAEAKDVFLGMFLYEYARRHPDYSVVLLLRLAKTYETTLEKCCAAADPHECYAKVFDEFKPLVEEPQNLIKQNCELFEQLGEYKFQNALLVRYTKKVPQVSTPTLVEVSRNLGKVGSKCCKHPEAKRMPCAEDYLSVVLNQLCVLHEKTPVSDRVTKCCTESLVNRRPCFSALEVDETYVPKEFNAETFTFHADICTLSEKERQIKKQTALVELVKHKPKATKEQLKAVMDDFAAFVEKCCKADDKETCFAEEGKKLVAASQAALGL
T7 sequence (P03950 25-147 limits assumed): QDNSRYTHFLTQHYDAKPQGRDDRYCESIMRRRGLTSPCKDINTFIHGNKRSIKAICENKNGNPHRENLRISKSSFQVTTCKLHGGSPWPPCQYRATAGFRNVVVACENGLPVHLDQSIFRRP

| Kd [1] | Kd [2] | koff [2] | kon [2] | Binder | further results |
| --- | --- | --- | --- | --- | --- |
| 1.1 nM | 1.1 nM | 0.0012 s⁻¹ | 1.1e+06 M⁻¹ s⁻¹ | LTVAKFWALTELQEYGVSDFYANLITKAKTVEGVEALKLHILAALP (designed binder) [ADAPT variant PSA_01] | Kd [3]: 280 nM; Kd [4]: 280 nM; koff [4]: 0.1 s⁻¹; kon [4]: 360000 M⁻¹ s⁻¹ |
| 3.9 nM | 3.9 nM | 0.0014 s⁻¹ | 360000 M⁻¹ s⁻¹ | LVIAKAYAQYELAFYGVSDFYSDLIKKAKTVEGVEALKLHILAALP (designed binder, also called INS_01) [ADAPT variant Insulin_01] | Kd [5]: 950 nM; Kd [6]: 950 nM; koff [6]: 0.22 s⁻¹; kon [6]: 240000 M⁻¹ s⁻¹ |
| 5.5 nM | 5.5 nM | 0.00064 s⁻¹ | 120000 M⁻¹ s⁻¹ | LMWAKAEAAIELVDYGVSDFYQYLISKAKTVEGVEALKLHILAALP (designed binder) [ADAPT variant REN_40] | Kd [7]: 410 nM; Kd [8]: 410 nM; koff [8]: 0.0035 s⁻¹; kon [8]: 8700 M⁻¹ s⁻¹ |
| 7.7 nM | 7.7 nM | 0.0038 s⁻¹ | 490000 M⁻¹ s⁻¹ | LRVAKSMAWHELWSYGVSDFYLRLIDKAKTVEGVEALKLHILAALP (designed binder) [ADAPT variant CRP_09] | Kd [9]: 1100 nM; Kd [10]: 1100 nM; koff [10]: 0.0013 s⁻¹; kon [10]: 1200 M⁻¹ s⁻¹ |
| 13 nM | 13 nM | 0.0054 s⁻¹ | 410000 M⁻¹ s⁻¹ | LKVAKIIAFHELWEYGVSDFYLSLIDKAKTVEGVEALKLHILAALP (designed binder) [ADAPT variant CRP_38] | Kd [9]: 52 nM; Kd [10]: 52 nM; koff [10]: 0.0017 s⁻¹; kon [10]: 33000 M⁻¹ s⁻¹ |
| 15 nM | 15 nM | 0.0042 s⁻¹ | 280000 M⁻¹ s⁻¹ | LHYAKIMAFHELWQYGVSDFYLQLIDKAKTVEGVEALKLHILAALP (designed binder) [ADAPT variant CRP_48] | Kd [9]: 62 nM; Kd [10]: 62 nM; koff [10]: 0.0012 s⁻¹; kon [10]: 19000 M⁻¹ s⁻¹ |
| 23 nM | 23 nM | 0.007 s⁻¹ | 300000 M⁻¹ s⁻¹ | LSKAKAQAWHELYYYGVSDFYLSLIDKAKTVEGVEALKLHILAALP (designed binder) [ADAPT variant CRP_23] | Kd [9]: 1900 nM; Kd [10]: 1900 nM; koff [10]: 0.0017 s⁻¹; kon [10]: 890 M⁻¹ s⁻¹ |
| 3.1 nM | 3.1 nM | 0.0014 s⁻¹ | 460000 M⁻¹ s⁻¹ | LAVAKAYAKYELAFYGVSDFYNELILKAKTVEGVEALKLHILAALP (designed binder, also called INS_03) [ADAPT variant Insulin_03] | Kd [5]: 1300 nM; Kd [6]: 1300 nM; koff [6]: 0.22 s⁻¹; kon [6]: 180000 M⁻¹ s⁻¹ |
| 23 nM | 23 nM | 0.00027 s⁻¹ | 12000 M⁻¹ s⁻¹ | LYHAKWMASLELAKYGVSDFYWNLISKAKTVEGVEALKLHILAALP (designed binder) [ADAPT variant REN_01] | Kd [7]: 76 nM; Kd [8]: 76 nM; koff [8]: 0.0024 s⁻¹; kon [8]: 32000 M⁻¹ s⁻¹ |
| 9.5 nM | 9.5 nM | 0.00034 s⁻¹ | 36000 M⁻¹ s⁻¹ | LIWAKASAVRELHRYGVSDFYYELIVKAKTVEGVEALKLHILAALP (designed binder) [ADAPT variant TNFα_09] | Kd [11]: 3.6 nM; Kd [12]: 3.6 nM; koff [12]: 0.0032 s⁻¹; kon [12]: 890000 M⁻¹ s⁻¹ |
| 3.3 nM | 3.3 nM | 0.0003 s⁻¹ | 92000 M⁻¹ s⁻¹ | LFRAKVWAVWELDQYGVSDFYDELIWKAKTVEGVEALKLHILAALP (designed binder) [ADAPT variant PSA_05] | Kd [3]: 300 nM; Kd [4]: 300 nM; koff [4]: 0.059 s⁻¹; kon [4]: 200000 M⁻¹ s⁻¹ |
| 18 nM | 18 nM | 0.00039 s⁻¹ | 21000 M⁻¹ s⁻¹ | LIWAKAEAVQELFMYGVSDFYYDLIIKAKTVEGVEALKLHILAALP (designed binder, Single domain of about 6 kDa, made in E. coli, purified on HSA resin) [ADAPT variant TNFα_05] | Kd [11]: 2.5 nM; Kd [12]: 2.5 nM; koff [12]: 0.0037 s⁻¹; kon [12]: 1.5e+06 M⁻¹ s⁻¹ |
| 1 nM | 1 nM | 3e-05 s⁻¹ | 29000 M⁻¹ s⁻¹ | LYVAKDNADWELWQYGVSDFYRSLIWKAKTVEGVEALKLHILAALP (designed binder) [ADAPT variant ANG_16] | Kd [13]: 5.1 nM; koff [13]: 0.0005 s⁻¹; kon [13]: 99000 M⁻¹ s⁻¹ |
| 1.1 nM | 1.1 nM | 2.6e-05 s⁻¹ | 24000 M⁻¹ s⁻¹ | LWAAKDDADWELWQYGVSDFYRALIWKAKTVEGVEALKLHILAALP (designed binder, also called ANG_6) [ADAPT variant ANG_06] | Kd [14]: 4.9 nM; Kd [13]: 4.9 nM; koff [13]: 0.00032 s⁻¹; kon [13]: 65000 M⁻¹ s⁻¹ |
| 2 nM | 2 nM | 4.5e-05 s⁻¹ | 23000 M⁻¹ s⁻¹ | LYWAKDYADYELWQYGVSDFYRSLIWKAKTVEGVEALKLHILAALP (designed binder, also called ANG_2) [ADAPT variant ANG_02] | Kd [13]: 14 nM; koff [13]: 0.0007 s⁻¹; kon [13]: 52000 M⁻¹ s⁻¹ |
| 2.8 nM | 2.8 nM | 6.8e-05 s⁻¹ | 25000 M⁻¹ s⁻¹ | LHEAKDWADYELWSYGVSDFYRALIWKAKTVEGVEALKLHILAALP (designed binder) [ADAPT variant ANG_13] | Kd [14]: 0.028 nM; Kd [13]: 0.028 nM; koff [13]: 2.9e-06 s⁻¹; kon [13]: 110000 M⁻¹ s⁻¹ |
